The values that follow are results of earlier work, collected in publication PMC5855594, “Poly-N-Acetyllactosamine Neo-Glycoproteins as Nanomolar Ligands of Human Galectin-3: Binding Kinetics and Modeling” (International Journal of Molecular Sciences, 2018).

For data set [1], the target named is BSA neo-glycoprotein 16 (Bos taurus). Kind of data set: ELISA. (ELISA stands for enzyme-linked immunosorbent assay.)
In data set [2] the target is BSA neo-glycoprotein 15 (Bos taurus) (UniProt P02769). Kind of data set: ELISA.
Chain of BSA neo-glycoprotein 15 (Bos taurus) (P02769 25-607): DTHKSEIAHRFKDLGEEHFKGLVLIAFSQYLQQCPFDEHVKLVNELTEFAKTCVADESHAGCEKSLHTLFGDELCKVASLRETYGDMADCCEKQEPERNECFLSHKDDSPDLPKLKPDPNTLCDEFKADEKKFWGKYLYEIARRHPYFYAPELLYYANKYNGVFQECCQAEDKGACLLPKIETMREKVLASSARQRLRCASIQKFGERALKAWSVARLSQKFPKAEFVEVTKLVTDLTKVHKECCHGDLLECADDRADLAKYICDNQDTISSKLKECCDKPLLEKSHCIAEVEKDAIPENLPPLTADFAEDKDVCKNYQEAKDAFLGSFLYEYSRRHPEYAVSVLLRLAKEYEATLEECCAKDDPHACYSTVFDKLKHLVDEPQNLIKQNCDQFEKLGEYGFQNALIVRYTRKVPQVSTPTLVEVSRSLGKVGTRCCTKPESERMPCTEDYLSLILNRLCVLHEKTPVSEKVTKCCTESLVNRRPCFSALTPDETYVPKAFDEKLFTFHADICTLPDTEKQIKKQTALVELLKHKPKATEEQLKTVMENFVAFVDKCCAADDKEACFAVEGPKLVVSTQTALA
Data set [3] concerns the target BSA neo-glycoprotein 14 (Bos taurus) (UniProt P02769). Kind of data set: ELISA.
For data set [4], the target named is BSA neo-glycoprotein 13 (Bos taurus) (UniProt P02769). Kind of data set: ELISA.
Chain of BSA neo-glycoprotein 13 (Bos taurus) (P02769 25-607): as above
Data set [5] has as its target BSA neo-glycoprotein 11 (Bos taurus) (UniProt P02769). Kind of data set: ELISA.
Data set [6] has as its target BSA neo-glycoprotein 12 (Bos taurus) (UniProt P02769). Kind of data set: ELISA.
Data set [7] addresses BSA neo-glycoprotein 16 (Bos taurus). Kind of data set: competitive ELISA.
Data set [8] has as its target BSA neo-glycoprotein 15 (Bos taurus) (UniProt P02769). Kind of data set: competitive ELISA.
Data set [9] deals with BSA neo-glycoprotein 14 (Bos taurus) (UniProt P02769). Kind of data set: competitive ELISA.
Chain of BSA neo-glycoprotein 14 (Bos taurus) (P02769 25-607): as above
Data set [10] concerns the target BSA neo-glycoprotein 13 (Bos taurus) (UniProt P02769). Kind of data set: competitive ELISA.
The target in data set [11] is Asialofetuin (Bos taurus) (UniProt P12763). Kind of data set: ITC. A general note: In ITC the heat of successive injections is recorded.
Chain of Asialofetuin (Bos taurus) (P12763 19-359): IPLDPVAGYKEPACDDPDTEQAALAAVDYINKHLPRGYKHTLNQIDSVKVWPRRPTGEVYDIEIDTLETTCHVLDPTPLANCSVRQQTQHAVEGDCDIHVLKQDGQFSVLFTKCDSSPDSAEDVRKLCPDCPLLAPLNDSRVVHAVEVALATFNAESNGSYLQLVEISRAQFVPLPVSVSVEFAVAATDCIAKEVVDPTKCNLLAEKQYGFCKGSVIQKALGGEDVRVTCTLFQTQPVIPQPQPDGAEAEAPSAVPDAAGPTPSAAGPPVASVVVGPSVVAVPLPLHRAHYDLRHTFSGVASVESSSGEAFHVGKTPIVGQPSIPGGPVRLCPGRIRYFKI

Chain of Galectin-3 (P17931 2-250): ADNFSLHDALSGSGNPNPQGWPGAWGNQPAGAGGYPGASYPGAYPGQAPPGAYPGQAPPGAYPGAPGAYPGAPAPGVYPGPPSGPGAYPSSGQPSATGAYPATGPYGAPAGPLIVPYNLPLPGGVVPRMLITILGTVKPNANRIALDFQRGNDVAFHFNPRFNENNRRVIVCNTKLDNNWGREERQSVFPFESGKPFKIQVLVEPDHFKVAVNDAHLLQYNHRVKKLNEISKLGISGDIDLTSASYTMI
Chain of BSA neo-glycoprotein 16 (Bos taurus) (P02769 25-607): as the sequence (P02769 25-607) above
Chain of BSA neo-glycoprotein 11 (Bos taurus) (P02769 25-607): as above
Chain of BSA neo-glycoprotein 12 (Bos taurus) (P02769 25-607): as above

For Galectin-3 (from UniProt P17931), the Kd (commonly the concentration at which binding is half-saturated) in data set [1] was 290 nM; in data set [2], 700 nM; in [3] it was 350 nM; in [4] it was 76 nM; in data set [5], 30 nM; in data set [6], 300 nM. For the same substance, the Kd in data set [11] is 7.14 nM. For the same substance, the IC50 (as a rule, the midpoint of a concentration-inhibition curve) in data set [7] is 65 nM; in data set [8], 212 nM; in data set [9], 76 nM; in [10] it was 37 nM.
